Patent US20200207850A1 (MacroGenics, published 2020)

What was measured:
[1] = target: T1, B7-H3 on A498 and JIMT-1 target cells (UniProt Q5ZPR3 29-534, limits assumed); assay: cell-based or functional assay
T1 sequence (looked up): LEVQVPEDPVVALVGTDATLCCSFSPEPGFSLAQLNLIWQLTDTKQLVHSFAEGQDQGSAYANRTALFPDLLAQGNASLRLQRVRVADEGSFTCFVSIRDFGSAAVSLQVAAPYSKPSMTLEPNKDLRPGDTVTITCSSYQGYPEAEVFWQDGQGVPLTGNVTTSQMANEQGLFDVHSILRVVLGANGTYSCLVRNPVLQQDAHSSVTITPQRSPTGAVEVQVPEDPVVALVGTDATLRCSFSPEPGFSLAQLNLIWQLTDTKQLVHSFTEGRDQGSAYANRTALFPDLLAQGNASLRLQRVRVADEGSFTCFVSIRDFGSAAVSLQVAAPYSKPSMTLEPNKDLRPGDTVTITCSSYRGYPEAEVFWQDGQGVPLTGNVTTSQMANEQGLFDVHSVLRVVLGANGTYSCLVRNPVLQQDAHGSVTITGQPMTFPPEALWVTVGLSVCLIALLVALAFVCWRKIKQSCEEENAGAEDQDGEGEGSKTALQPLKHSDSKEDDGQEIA

[2] = target: T2, CD8 on human T cells (PBMC) (human, UniProt P01732 22-235); assay: flow cytometry on human PBMC, CD5+/CD4- gated cells (bear CD8 and CD3), detection PE anti-human Fc (MFI)
T2 construct: whole, on cells; The CD8+ (CD5+ CD4-) cells also carry CD3; also called CD5+ CD4- gated PBMC; CD8+ T cells
T2 sequence (P01732 22-235): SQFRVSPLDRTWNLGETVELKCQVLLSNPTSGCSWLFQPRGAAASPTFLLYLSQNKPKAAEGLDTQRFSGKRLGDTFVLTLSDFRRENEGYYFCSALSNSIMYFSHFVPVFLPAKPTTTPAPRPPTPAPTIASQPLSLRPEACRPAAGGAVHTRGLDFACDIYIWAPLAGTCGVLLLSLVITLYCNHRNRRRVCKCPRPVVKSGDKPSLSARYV
Protocol: 50 μL (4×10⁶ cells/mL) of well-mixed cells in FACS buffer containing 0.01% sodium azide were then added into corresponding wells and mixed thoroughly using a pipette. The plate was incubated in the dark for about 45 minutes at 2-8° C. At the end of the incubation, the cells were washed twice by adding 300 μL of FACS buffer to each well, centrifuging the plate at 1,200 rpm for 5 minutes, and discarding the supernatant. The cell pellets were re-suspended in 100 μL mixture of PE-conjugated goat anti-Human Fcγ 1:500 diluted, CD5-APC and CD4-PerCP5.5 in FACS buffer containing 0.01% sodium azide, and incubated in the dark for about 45 minutes at 2-8° C. At the end of the incubation, the cells were washed, re-suspended with FACS buffer, and analyzed with a BD Caliber flow cytometer. Cells were gated to CD5⁺ CD4⁺ (FIG. 9A) or CD5⁺ CD4⁻ (FIG. 9B).

[3] = target: T2, CD8 on human T cells (PBMC); assay: flow cytometry, binding to human CD5+/CD4- cells (bear CD8 and CD3) (MFI)
[4] = target: T3, 5T4 on JIMT-1 target cells (UniProt Q13641 32-420, limits assumed); assay: cell-based or functional assay
T3 sequence (looked up): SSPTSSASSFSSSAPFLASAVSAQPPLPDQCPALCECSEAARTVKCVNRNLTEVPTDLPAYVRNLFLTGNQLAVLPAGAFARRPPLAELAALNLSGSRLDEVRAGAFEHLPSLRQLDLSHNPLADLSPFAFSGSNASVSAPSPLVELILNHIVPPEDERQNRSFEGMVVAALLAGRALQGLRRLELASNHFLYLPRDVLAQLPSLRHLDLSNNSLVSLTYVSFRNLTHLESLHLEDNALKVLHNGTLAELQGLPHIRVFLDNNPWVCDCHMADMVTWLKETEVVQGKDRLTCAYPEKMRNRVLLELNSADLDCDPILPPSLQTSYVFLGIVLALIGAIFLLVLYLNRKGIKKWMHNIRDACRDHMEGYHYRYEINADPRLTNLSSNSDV

[5] = target: T2, CD8 on human T cells (PBMC); assay: flow cytometry on human PBMC gated CD5+/CD4- (cells carry CD8 and CD3), detection with anti-human Fc-PE

B1: B7-H3 mAb 1/CD3 mAb 2/CD8 mAb 2 Tri-Specific Binding Molecule (other)
chain 1: DIQMTQSPSSLSASVGDRVTITCRASQDISNYLNWYQQKPGKAPKLLIYYTSRLHSGVPSRFSGSGSGTDFTLTISSLQPEDIATYYCQQGNTLPPTFGGGTKLEIKGGGSGGGGEVQLVESGGGLVQPGGSLRLSCAASGFTFSTYAMNWVRQAPGKGLEWVGRIRSKYNNYATYYADSVKDRFTISRDDSKNSLYLQMNSLKTEDTAVYYCVRHGNFGNSYVSWFAYWGQGTLVTVSSGGCGGGEVAALEKEVAALEKEVAALEKEVAALEKGGGDKTHTCPPCPAPEAAGGPSVFLFPPKPKDTLMISRTPEVTCVVVDVSHEDPEVKFNWYVDGVEVHNAKTKPREEQYNSTYRVVSVLTVLHQDWLNGKEYKCKVSNKALPAPIEKTISKAKGQPREPQVYTLPPSREEMTKNQVSLWCLVKGFYPSDIAVEWESNGQPENNYKTTPPVLDSDGSFFLYSKLTVDKSRWQQGNVFSCSVMHEALHNHYTQKSLSLSPGK
chain 2: QAVVTQEPSLTVSPGGTVTLTCRSSTGAVTTSNYANWVQQKPGQAPRGLIGGTNKRAPWTPARFSGSLLGGKAALTITGAQAEDEADYYCALWYSNLWVFGGGTKLTVLGGGGSGGGGQVQLVQSGAEVKKPGASVKVSCKASGYTFTSYWMQWVRQAPGQGLEWMGTIYPGDGDTRYTQKFKGRVTITADKSTSTAYMELSSLRSEDTAVYYCARRGIPRLWYFDVWGQGTTVTVSSGGCGGGKVAALKEKVAALKEKVAALKEKVAALKE
heavy: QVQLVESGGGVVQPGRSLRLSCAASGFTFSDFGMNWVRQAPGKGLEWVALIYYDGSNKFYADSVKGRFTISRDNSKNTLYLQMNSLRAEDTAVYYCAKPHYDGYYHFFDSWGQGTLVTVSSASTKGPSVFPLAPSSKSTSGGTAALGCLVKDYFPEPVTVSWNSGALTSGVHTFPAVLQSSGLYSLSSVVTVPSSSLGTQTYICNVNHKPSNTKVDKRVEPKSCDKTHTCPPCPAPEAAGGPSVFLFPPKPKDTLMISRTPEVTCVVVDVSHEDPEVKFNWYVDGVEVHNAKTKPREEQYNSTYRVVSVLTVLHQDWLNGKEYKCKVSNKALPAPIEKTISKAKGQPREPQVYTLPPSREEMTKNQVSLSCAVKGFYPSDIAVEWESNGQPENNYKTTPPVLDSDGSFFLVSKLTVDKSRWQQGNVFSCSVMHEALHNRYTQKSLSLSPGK
light: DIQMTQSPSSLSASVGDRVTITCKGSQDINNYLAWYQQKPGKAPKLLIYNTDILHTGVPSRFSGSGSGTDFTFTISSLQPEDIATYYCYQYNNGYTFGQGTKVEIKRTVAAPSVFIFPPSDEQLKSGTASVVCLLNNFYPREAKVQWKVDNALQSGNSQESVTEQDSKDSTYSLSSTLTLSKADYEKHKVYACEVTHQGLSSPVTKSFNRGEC
notes: Site A B7-H3, Site B CD3, Site C CD8 (TRX2)
EC50 (nM) of killing, CD4+ effector cells, JIMT1-luc target cells, E:T 5:1 [1]: 0.314 nM
EC50 (nM) of killing, CD8+ effector cells, JIMT1-luc target cells, E:T 5:1 [1]: 0.0051 nM
EC50 (nM) of killing, PanT effector cells, JIMT1-luc target cells, E:T 5:1 [1]: 0.0058 nM
EC50 (read off the curve) [2]: ~1000 pM

B2: CD3 mAb 2/CD8 mAb 1/B7-H3 mAb 1 Tri-Specific Binding Molecule (other)
chain 1: DVQINQSPSFLAASPGETITINCRTSRSISQYLAWYQEKPGKTNKLLIYSGSTLQSGIPSRFSGSGSGTDFTLTISGLEPEDFAMYYCQQHNENPLTFGAGTKLELRGGGSGGGGEVQLVESGGGLVQPGGSLRLSCAASGFTFSTYAMNWVRQAPGKGLEWVGRIRSKYNNYATYYADSVKGRFTISRDDSKNSLYLQMNSLKTEDTAVYYCVRHGNFGNSYVSWFAYWGQGTLVTVSSGGCGGGEVAALEKEVAALEKEVAALEKEVAALEKGGGDKTHTCPPCPAPEAAGGPSVFLFPPKPKDTLMISRTPEVTCVVVDVSHEDPEVKFNWYVDGVEVHNAKTKPREEQYNSTYRVVSVLTVLHQDWLNGKEYKCKVSNKALPAPIEKTISKAKGQPREPQVYTLPPSREEMTKNQVSLWCLVKGFYPSDIAVEWESNGQPENNYKTTPPVLDSDGSFFLYSKLTVDKSRWQQGNVFSCSVMHEALHNHYTQKSLSLSPGK
chain 2: QAVVTQEPSLTVSPGGTVTLTCRSSTGAVTTSNYANWVQQKPGQAPRGLIGGTNKRAPWTPARFSGSLLGGKAALTITGAQAEDEADYYCALWYSNLWVFGGGTKLTVLGGGGSGGGGEVQLQQSGAELVKPGASVKLSCTASGFNIKDTYIHFVRQRPEQGLEWIGRIDPANDNTLYASKFQGKATITADTSSNTAYMHLCSLTSGDTAVYYCGRGYGYYVFDHWGQGTTLTVSSGGCGGGKVAALKEKVAALKEKVAALKEKVAALKE
heavy: QVQLVQSGAEVKKPGASVKVSCKASGYTFTSYWMQWVRQAPGQGLEWMGTIYPGDGDTRYTQKFKGRVTITADKSTSTAYMELSSLRSEDTAVYYCARRGIPRLWYFDVWGQGTTVTVSSASTKGPSVFPLAPSSKSTSGGTAALGCLVKDYFPEPVTVSWNSGALTSGVHTFPAVLQSSGLYSLSSVVTVPSSSLGTQTYICNVNHKPSNTKVDKRVEPKSCDKTHTCPPCPAPEAAGGPSVFLFPPKPKDTLMISRTPEVTCVVVDVSHEDPEVKFNWYVDGVEVHNAKTKPREEQYNSTYRVVSVLTVLHQDWLNGKEYKCKVSNKALPAPIEKTISKAKGQPREPQVYTLPPSREEMTKNQVSLSCAVKGFYPSDIAVEWESNGQPENNYKTTPPVLDSDGSFFLVSKLTVDKSRWQQGNVFSCSVMHEALHNRYTQKSLSLSPGK
light: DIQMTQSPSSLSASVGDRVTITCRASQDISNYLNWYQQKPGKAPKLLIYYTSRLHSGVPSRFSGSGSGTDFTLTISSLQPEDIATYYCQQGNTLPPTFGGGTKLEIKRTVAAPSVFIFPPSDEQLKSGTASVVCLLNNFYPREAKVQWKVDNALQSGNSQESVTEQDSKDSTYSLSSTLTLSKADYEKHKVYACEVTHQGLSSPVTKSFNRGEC
notes: Site A CD3, Site B CD8, Site C B7-H3
EC50 (nM) of killing, CD4+ effector cells, JIMT1-luc target cells, E:T 5:1 [1]: 0.105 nM
EC50 (nM) of killing, CD8+ effector cells, JIMT1-luc target cells, E:T 5:1 [1]: 0.0053 nM
EC50 (nM) of killing, PanT effector cells, JIMT1-luc target cells, E:T 5:1 [1]: 0.0113 nM
EC50 (read off the curve) [3]: ~2000 pM

B3: 5T4 mAb 1/CD3 mAb 2/CD8 mAb 1 Tri-Specific Binding Molecule (other)
chain 1: DIQMTQSPSSLSASVGDRVTITCRASQGISNYLAWFQQKPGKAPKSLIYRANRLQSGVPSRFSGSGSGTDFTLTISSLQPEDVATYYCLQYDDFPWTFGQGTKLEIKGGGSGGGGEVQLVESGGGLVQPGGSLRLSCAASGFTFSTYAMNWVRQAPGKGLEWVGRIRSKYNNYATYYADSVKGRFTISRDDSKNSLYLQMNSLKTEDTAVYYCVRHGNFGNSYVSWFAYWGQGTLVTVSSGGCGGGEVAALEKEVAALEKEVAALEKEVAALEKGGGDKTHTCPPCPAPEAAGGPSVFLFPPKPKDTLMISRTPEVTCVVVDVSHEDPEVKFNWYVDGVEVHNAKTKPREEQYNSTYRVVSVLTVLHQDWLNGKEYKCKVSNKALPAPIEKTISKAKGQPREPQVYTLPPSREEMTKNQVSLWCLVKGFYPSDIAVEWESNGQPENNYKTTPPVLDSDGSFFLYSKLTVDKSRWQQGNVFSCSVMHEALHNHYTQKSLSLSPGK
chain 2: QAVVTQEPSLTVSPGGTVTLTCRSSTGAVTTSNYANWVQQKPGQAPRGLIGGTNKRAPWTPARFSGSLLGGKAALTITGAQAEDEADYYCALWYSNLWVFGGGTKLTVLGGGGSGGGGQVQLVQSGAEVKKPGASVKVSCKASGYTFTSFWMHWVRQAPGQGLEWMGRIDPNRGGTEYNEKAKSRVTMTADKSTSTAYMELSSLRSEDTAVYYCAGGNPYYPMDYWGQGTTVTVSSGGCGGGKVAALKEKVAALKEKVAALKEKVAALKE
heavy: EVQLQQSGAELVKPGASVKLSCTASGFNIKDTYIHFVRQRPEQGLEWIGRIDPANDNTLYASKFQGKATITADTSSNTAYMHLCSLTSGDTAVYYCGRGYGYYVFDHWGQGTTLTVSSASTKGPSVFPLAPSSKSTSGGTAALGCLVKDYFPEPVTVSWNSGALTSGVHTFPAVLQSSGLYSLSSVVTVPSSSLGTQTYICNVNHKPSNTKVDKRVEPKSCDKTHTCPPCPAPEAAGGPSVFLFPPKPKDTLMISRTPEVTCVVVDVSHEDPEVKFNWYVDGVEVHNAKTKPREEQYNSTYRVVSVLTVLHQDWLNGKEYKCKVSNKALPAPIEKTISKAKGQPREPQVYTLPPSREEMTKNQVSLSCAVKGFYPSDIAVEWESNGQPENNYKTTPPVLDSDGSFFLVSKLTVDKSRWQQGNVFSCSVMHEALHNRYTQKSLSLSPGK
light: DVQINQSPSFLAASPGETITINCRTSRSISQYLAWYQEKPGKTNKLLIYSGSTLQSGIPSRFSGSGSGTDFTLTISGLEPEDFAMYYCQQHNENPLTFGAGTKLELRRTVAAPSVFIFPPSDEQLKSGTASVVCLLNNFYPREAKVQWKVDNALQSGNSQESVTEQDSKDSTYSLSSTLTLSKADYEKHKVYACEVTHQGLSSPVTKSFNRGEC
EC50 (nM) of killing, CD4+ effector cells, JIMT1-luc target cells, E:T 5:1 [4]: 0.0045 nM
EC50 (nM) of killing, CD8+ effector cells, JIMT1-luc target cells, E:T 5:1 [4]: 0.0007 nM
EC50 (nM) of killing, PanT effector cells, JIMT1-luc target cells, E:T 5:1 [4]: 0.0009 nM
EC50 (read off the curve) [5]: ~1000 pM

B4: 5T4 mAb 1/CD3 mAb 2 Fast/CD8 mAb 1 Tri-Specific Binding Molecule (other)
chain 1: DIQMTQSPSSLSASVGDRVTITCRASQGISNYLAWFQQKPGKAPKSLIYRANRLQSGVPSRFSGSGSGTDFTLTISSLQPEDVATYYCLQYDDFPWTFGQGTKLEIKGGGSGGGGEVQLVESGGGLVQPGGSLRLSCAASGFTFSTYAMNWVRQAPGKGLEWVGRIRSKYNNYATYYADSVKGRFTISRDDSKNSLYLQMNSLKTEDTAVYYCVRHKNFGNSYVTWFAYWGQGTLVTVSSASTKGEVAACEKEVAALEKEVAALEKEVAALEKGGGDKTHTCPPCPAPEAAGGPSVFLFPPKPKDTLMISRTPEVTCVVVDVSHEDPEVKFNWYVDGVEVHNAKTKPREEQYNSTYRVVSVLTVLHQDWLNGKEYKCKVSNKALPAPIEKTISKAKGQPREPQVYTLPPSREEMTKNQVSLWCLVKGFYPSDIAVEWESNGQPENNYKTTPPVLDSDGSFFLYSKLTVDKSRWQQGNVFSCSVMHEALHNHYTQKSLSLSPGK
chain 2: QAVVTQEPSLTVSPGGTVTLTCRSSTGAVTTSNYANWVQQKPGQAPRGLIGGTNKRAPWTPARFSGSLLGGKAALTITGAQAEDEADYYCALWYSNLWVFGGGTKLTVLGGGGSGGGGQVQLVQSGAEVKKPGASVKVSCKASGYTFTSFWMHWVRQAPGQGLEWMGRIDPNRGGTEYNEKAKSRVTMTADKSTSTAYMELSSLRSEDTAVYYCAGGNPYYPMDYWGQGTTVTVSSASTKGKVAACKEKVAALKEKVAALKEKVAALKE
heavy: B3 heavy
light: B3 light
EC50 (nM) of killing, CD4+ effector cells, JIMT1-luc target cells, E:T 5:1 [4]: 0.16 nM
EC50 (nM) of killing, CD8+ effector cells, JIMT1-luc target cells, E:T 5:1 [4]: 0.0021 nM
EC50 (nM) of killing, PanT effector cells, JIMT1-luc target cells, E:T 5:1 [4]: 0.0028 nM
EC50 (read off the curve) [5]: ~500 pM
